Results reported in article PMC8781159, “Implication of Potential Differential Roles of the Two Phosphoglucomutase Isoforms in the Protozoan Parasite Cryptosporidium parvum” (Pathogens, 2021).

B1: CpPGM1B short form (rCpPGM1B-S) (Cryptosporidium parvum Iowa II) (protein)
chain: LLDMLVQEVQISPYLDQKPGTSGLRKKTRVFMEGTYLANFIESYFQSFPPENFEGATLLVAGDGRFFLPEAIQIISEIAAAHKVKRIWTGVNGLCSTPAGSAIIREREGGIAVGGILLTASHNPGGIDEDFGVKFNEKNGGPAQDSVTNAIFEITKKLTSYKKISLPKIDLSKIGVQELIPNQFTVEVIDTSEDWLKLMKKIFDFQKIQNLLNRKDFKMVFDSMHGVAGPYARKLFIDEFGLPESSLLHLESKPDFGGLHPDPNLTYAKDLVELMKVKSPEKVDKNTPDFGAAGDGDCDRNMILGKGFFVTPSDSVAIIASYAKEAIPYFSKGLAGVSRSMPTSTSLNNVAEKLGIPCYEVPTGWKYFGNLMDAKMIDICGEESFGTGSDHIREKDGLWAVLAWLSILAYKNPDPTKSLVSVEDITREFWKTYGRNYYTRFDYESVETEKADQFFKHLNSLMEDSQKLRNSLRSSGLKVKFMDNFTYNDPVDGSVTKNQGVRIIFTDGSRIIFRISGTGSVGATIRVYMEKTVKNPQEFEKTTQQALNHLIEIVEKKIKLKEITGRSKPTVIT
notes: PGM1 domain only; signal peptide and ~80 aa linker removed (full ORF 2013 bp); MBP-fusion (pMAL-c5x), E. coli BL21(DE3), MBP kept
B2: CpPGM1A (rCpPGM1A) (Cryptosporidium parvum) (protein)
chain: MEQVQVTPYLDQKPGTSGLRKKTRVFMEGTYLANFIESYFQSFPPENFEGATLLVAGDGRFFLPEAIQIISEIAAAHKVKRIWTGVNGLCSTPAGSAIIREREGGIAVGGILLTASHNPGGIDEDFGVKFNGKNGGPAQDSVTNTIFEITKKLTSYKKISLPKIDLSKIGVQELIPNQFTVEVIDTSEDWLKLMKKIFDFQKIQNLLNRKDFKMAFDSMHGVAGPYARKLFVDEFGLPESSLLHLESKPDFGGLHPDPNLTYAKDLVELMKVKSPEKVDKSTPDFGAAGDGDCDRNMILGKGFFVTPSDSVAIIASYAKEAIPYFSKGLAGVSRSMPTSTSLNNVAEKLGIPCYEVPTGWKYFGNLMDAKMIDICGEESFGTGSDHIREKDGLWAVLAWLSILAHKNPDPTKPLVSVEDITREFWKTYGRNYYTRFDYESIETEKADQFFKHLNSLMEDHQKLREIIKPYGIDIKLTDNFTYNDPVDKSVAKNQGLRFIFQDNSRVVFRLSGTGSVGATIRIYIEKTVSDQTKVNSTSNEILGDLIEIVEKKIKLKESTGRDRPTVIT

Columns and labels:
[1] = biological target: T1, CpPGM1B long form (rCpPGM1B-L) (Cryptosporidium parvum, UniProt Q5CTF2); assay: G6PDH-coupled assay, NADH formation at […] nm; format: biochemical; conditions: 50 mM Tris-HCl pH 8.5, 1.0 mM MgCl2, 0.2 mM NAD+, 2 mM G1P
T1 construct: gene cgd2_3270; linker plus PGM1 domain; signal peptide (63 nt) removed (full ORF 2013 bp); MBP-fusion (pMAL-c5x), E. coli BL21(DE3), MBP kept
T1 sequence (Q5CTF2 24-670): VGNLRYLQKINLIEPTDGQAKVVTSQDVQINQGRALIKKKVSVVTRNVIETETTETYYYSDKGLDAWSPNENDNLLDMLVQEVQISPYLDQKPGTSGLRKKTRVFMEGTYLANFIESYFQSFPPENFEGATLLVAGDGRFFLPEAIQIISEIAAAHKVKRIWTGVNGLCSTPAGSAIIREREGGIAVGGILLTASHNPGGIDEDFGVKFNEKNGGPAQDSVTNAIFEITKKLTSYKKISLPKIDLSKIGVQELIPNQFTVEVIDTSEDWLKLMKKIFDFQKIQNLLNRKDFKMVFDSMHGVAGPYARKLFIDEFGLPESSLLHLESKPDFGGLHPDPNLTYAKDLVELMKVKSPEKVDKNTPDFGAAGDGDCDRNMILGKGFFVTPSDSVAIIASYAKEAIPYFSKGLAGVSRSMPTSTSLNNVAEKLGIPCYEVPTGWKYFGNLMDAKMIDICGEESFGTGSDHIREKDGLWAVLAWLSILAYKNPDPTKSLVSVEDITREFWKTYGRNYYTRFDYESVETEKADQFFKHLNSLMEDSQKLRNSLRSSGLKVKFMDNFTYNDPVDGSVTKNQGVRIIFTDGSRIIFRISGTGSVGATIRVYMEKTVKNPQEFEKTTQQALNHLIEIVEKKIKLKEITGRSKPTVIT

purified protein = substrate: O=P(O)(O)O[C@H]1O[C@H](CO)[C@@H](O)[C@H](O)[C@H]1O; assay: purified protein; format: biochemical, Cryptosporidium parvum; conditions: 50 mM Tris-HCl pH 8.5, 1.0 mM MgCl2, 0.2 mM NAD+

Molecule	G6PDH-coupled assay, NADH formation at 340 nm [1]	Km (purified protein)
O=P(O)(O)O[C@H]1O[C@H](CO)[C@@H](O)[C@H](O)[C@H]1O [G1P, glucose-1-phosphate]	rCpPGM1A, rCpPGM1B-L and rCpPGM1B-S) displayed activity in converting G1P to G6P	
B1		130 µM
B2		170 µM
